From patent US20250250357A1 (NANJING ZAIMING PHARMACEUTICAL, published 2025)

Assays:
[1] = target: T1, human MSLN-FL-his protein (human, UniProt Q13421 296-580); assay: competitive ELISA; row F1.2.12; also: test concentration or dose not given here
T1 construct: made in HEK293E cells, purified on nickel column; also called hMSLN-FL-his; human MSLN full-length protein; not shown: His tag

[2] = target: T1, human MSLN-FL-his protein; assay: competitive ELISA; row F1.56.1; also: test concentration or dose not given here
[3] = target: T1, human MSLN-FL-his protein; assay: competitive ELISA; row F2.13.3; also: test concentration or dose not given here
[4] = target: T1, human MSLN-FL-his protein; assay: competitive ELISA; row F2.17.3
Protocol: In order to identify antigen-binding sites of antibodies, MSLN chimeric antibodies were grouped using competitive ELISA.
The chimeric antibodies were diluted to 2 μg/mL with PBS and allowed to coat 96-well high-adsorption ELISA plates at 50 μL/well. After the plates were coated at 4° C. overnight, 250 μL of a blocking buffer (PBS containing 2% (w/w) BSA) was added for two hours of blocking at room temperature. 40 μg/mL of the antibodies to be tested were added, and then the human MSLN-FL-His protein with an EC₈₀ concentration corresponding to each of the antibodies to be tested was added for incubation for 2 h. The plates were washed 5 times with PBS, an HRP-labeled anti-His secondary antibody (purchased from Genescript, Cat. No. A00612) was then added for incubation for 1 h, and the plates were washed 5 times again. A TMB substrate was added at 50 μL/well, and after 10 minutes of incubation at room temperature, a stop solution (1.0 M HCl) was added at 50 μL/well. OD₄₅₀ nm values were read using an ELISA plate reader (Insight, purchased from PerkinElmer), and the competition rate between the antibodies was calculated according to the OD₄₅₀ nm values using a formula.

[5] = target: T1, human MSLN-FL-his protein; assay: competitive ELISA; row F2.39.3; also: test concentration or dose not given here
[6] = target: T1, human MSLN-FL-his protein; assay: competitive ELISA; row F2.58.8; also: test concentration or dose not given here
[7] = target: T1, human MSLN-FL-his protein; assay: competitive ELISA; row F1.35.24; also: test concentration or dose not given here
[8] = target: T1, human MSLN-FL-his protein; assay: competitive ELISA; row F2.16.10; also: test concentration or dose not given here
[9] = target: T1, human MSLN-FL-his protein; assay: competitive ELISA; row F2.24.10; also: test concentration or dose not given here
[10] = target: T1, human MSLN-FL-his protein; assay: competitive ELISA; row Tab108 (R3); also: test concentration or dose not given here
[11] = target: T1, human MSLN-FL-his protein; assay: competitive ELISA; row Tab142 (R1); also: test concentration or dose not given here
[12] = target: T1, human MSLN-FL-his protein; assay: SPR (Biacore), antibody captured on Protein A chip;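 also: measured at 25 °C, analyte injected 240 s in five twofold dilutions from 200 nM, dissociation up to 600 s, double-referenced, fitted with Langmuir 1:1 model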
Protocol: The flow cell was set at 25° C. The sample block was set at 16° C. Both were pretreated with the running buffer. In each cycle, first, the antibody to be tested was captured using the Protein A chip, and then a single concentration of human MSLN-FL-his protein was injected. […] The association was determined by injecting different concentrations of human MSLN-FL-his in solution for 240 s on end, wherein the flow rate was 30 μL/min, and the protein was diluted in a 1:1 dilution ratio from 200 nM (see detailed results for actual concentrations tested) to obtain 5 concentrations in total. The dissociation phase was monitored for up to 600 s and triggered by switching from the sample solution to the running buffer. The surface was regenerated by washing with 10 mM glycine solution (pH 1.5) at a flow rate of 30 μL/min for 30 s. The difference in bulk refractive index was corrected by subtracting the responses obtained from the goat anti-human Fc surface. Blank injections were also subtracted (=double reference). To calculate the apparent KD and other kinetic parameters, the Langmuir 1:1 model was used.

[13] = target: T1, human MSLN-FL-his protein; assay: competitive ELISA; row Tab107 (conformation); also: test concentration or dose not given here
[14] = target: T2, human MSLN protein endogenously expressed on OVCAR3 tumor cells (human, UniProt Q13421 296-598); assay: FACS on OVCAR3 cells
T2 construct: whole, on cells; Endogenous target on OVCAR3 cells; kept apart from the recombinant full-length construct; also called mesothelin
T2 sequence (Q13421 other isoform, or with tags, fused parts or gaps): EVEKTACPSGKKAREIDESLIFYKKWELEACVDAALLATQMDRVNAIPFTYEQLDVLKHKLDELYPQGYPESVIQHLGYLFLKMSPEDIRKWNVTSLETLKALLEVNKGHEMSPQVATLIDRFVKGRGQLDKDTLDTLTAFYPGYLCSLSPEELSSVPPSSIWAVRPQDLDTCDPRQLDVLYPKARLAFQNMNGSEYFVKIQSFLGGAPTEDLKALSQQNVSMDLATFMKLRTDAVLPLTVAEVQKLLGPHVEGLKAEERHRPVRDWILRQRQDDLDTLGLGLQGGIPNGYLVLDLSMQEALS
Protocol: (§1) The desired cells were expanded to the logarithmic growth phase in a T-75 cell culture flask. […] After the cells from the previous step were subjected to cell counting, the cell pellet was resuspended to 2×10⁶ cells/mL in a blocking buffer of [PBS+2% (w/w) BSA] and added into a 96-well FACS reaction plate at 50 μL/well. A chimeric antibody (a sample to be tested) was added at 50 μL/well, and the plate was incubated on ice for 2 h. […] After the plate was centrifuged and washed 5 times with a PBST buffer, assay and analysis were performed by FACS (FACS CantoII, purchased from BD). Data analysis was performed by software (Flowjo) to obtain the mean fluorescence intensity (MFI) of the cells.

[15] = target: T3, human MSLN full-length protein (NCBI: AAH09272.1) expressed on HEK293T-hMSLN-B8 cells (human, UniProt Q13421 296-598); assay: FACS on HEK293T-hMSLN-B8 cells
T3 construct: Whole encoded precursor
T3 sequence (Q13421 other isoform, or with tags, fused parts or gaps limits assumed): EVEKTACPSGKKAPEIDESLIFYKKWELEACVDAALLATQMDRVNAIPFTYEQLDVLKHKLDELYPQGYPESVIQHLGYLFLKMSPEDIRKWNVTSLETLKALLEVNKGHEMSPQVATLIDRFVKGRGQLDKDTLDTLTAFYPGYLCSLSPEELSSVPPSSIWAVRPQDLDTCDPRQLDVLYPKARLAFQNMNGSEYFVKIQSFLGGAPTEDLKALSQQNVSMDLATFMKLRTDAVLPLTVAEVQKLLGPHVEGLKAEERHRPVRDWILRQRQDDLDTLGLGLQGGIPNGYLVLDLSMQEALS

[16] = target: T4, human MSLN-R3 protein (Met487-Ser606 of NCBI AAH09272.1) expressed on HEK293T-hMSLN-R3 cells (human, UniProt Q13421 487-606); assay: FACS on HEK293T-hMSLN-R3 cells
T4 construct: also called Region3
T4 sequence (Q13421 495-614): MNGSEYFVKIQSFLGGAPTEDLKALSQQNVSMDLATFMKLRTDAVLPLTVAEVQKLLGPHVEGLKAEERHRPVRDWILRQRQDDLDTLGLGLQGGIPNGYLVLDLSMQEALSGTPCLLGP
Protocol: as §1

T1 sequence (Q13421 other isoform, or with tags, fused parts or gaps): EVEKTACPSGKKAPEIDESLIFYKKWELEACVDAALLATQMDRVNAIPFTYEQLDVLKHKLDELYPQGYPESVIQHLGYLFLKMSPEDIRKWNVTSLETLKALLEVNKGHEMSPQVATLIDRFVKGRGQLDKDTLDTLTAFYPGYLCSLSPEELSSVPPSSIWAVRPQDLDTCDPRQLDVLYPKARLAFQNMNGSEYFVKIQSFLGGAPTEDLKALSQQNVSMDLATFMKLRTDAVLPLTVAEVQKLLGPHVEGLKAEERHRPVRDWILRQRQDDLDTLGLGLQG

Row | Binder | competition rate [1] [%] | competition rate [2] [%] | competition rate [3] [%] | competition rate [4] [%] | competition rate [5] [%] | competition rate [6] [%] | competition rate [7] [%] | competition rate [8] [%] | competition rate [9] [%] | competition rate [10] [%] | competition rate [11] [%] | Kd [12] [nM] | koff [12] [s⁻¹] | kon [12] [M⁻¹ s⁻¹] | competition rate [13] [%] | Maximum mean fluorescence intensity [14] | Maximum mean fluorescence intensity [15] | EC50 [16] [nM] | Maximum mean fluorescence intensity [16]
1 | S009-F1.2.12 (antibody, human IgG1, kappa, V domains shown, human-murine chimeric antibody, human IgG1/kappa constant regions) VH: QVQLKQTGPGLVQPSQSLSITCTVSGFSLTNYAVHWVRQSPGKGLEWLGVIWSGGATDYNTVFISRLSISKDNSKSQVFFKVNSLQVDDTAIYYCARTGSGYAMDYWGQGTSVTVSS VL: DIVLTQSPATLSVTPGDRVSLSCRTSHNVNTYLHWYQQKSHESPRLLIKYASQSISEIPSRFSGSGSGTNFTLSINSVETEDFGMYFCHQTNRWPLTFGAGTKLELKR | 63 | 74 | 54 | -31 | 2 | 32 | 4 | -81 | -17 | -29 | -5 | 15.8 | 0.00143 | 90600 | 29 |  |  |  | 
2 | S009-F2.47.1 (antibody, human IgG1, kappa, V domains shown, human-murine chimeric antibody, human IgG1/kappa constant regions) VH: QVQLQQPGAELVKPGASVKLSCKASGYTFTSYWMHWVKQRPGQGLEWIGMIHPNSGSTNYNEKFKSKATLTVDKSSSTAYMQLSSLTSEDSAVYYCARPVVPYWYFDVWGTGTTVTVSS VL: DIVMTQSQKFMSTTVGDRVSITCKASQNVGTAVAWYQQKPGQSPKLLIYSASNRYTGVPDRFTGSGSGTDFTLTISNMQSEDLADYFCQQSSSYPLTFGAGTKLELKR | -484 | -324 | -975 | -88 | 23 | 31 | -12 | 88 | 56 | -158 | 82 | 5.13 | 0.0103 | 2.01e+06 | -42 |  |  |  | 
3 | S009-F2.16.10 (antibody, human IgG1, kappa, V domains shown, human-murine chimeric antibody, human IgG1/kappa constant regions) VH: QVQLQQPGAELIKPGASVKLSCKASGYTFTSYWMHWVKQRPGQGLEWIGIIHPNIGSTNYNERFKSKATLTVDKSSSTAYMQLSSLTSEDSAVYYCARRSSNYGDWYFDVWGTGTTVTVSS VL: DIVMTQSHRFMSTSVGDRVSITCKASQDVGTSVAWYQQKPGQSPKLLIYWASTQHTGVPDRFTGSGSGTDFTLTINNVQSEDLLDYFCQQYSSYPLTFGAGTKLELKR | -401 | -401 | -740 | -34 | 31 | 18 | -18 | 103 | 88 | -156 | 98 | 1.51 | 0.00164 | 1.09e+06 | -51 |  |  |  | 
4 | S009-F1.25.10 (antibody, human IgG1, kappa, V domains shown, human-murine chimeric antibody, human IgG1/kappa constant regions) VH: EVQLQQSGPELVKPGASLKISCKASGYSFTDYTMNWVKQSHGKNLEWIGLFNPYNGGISYNQKFKGKATLTVDKSSNTAYMELLSLTSDDSAVYFCARDGRGGFYAMDYWGQGTSVTVSS VL: DIQMTQTTSSLSASLGDRVTISCRASQDISIYLNWYQQKPDGPVKLLIYYTSRLHSGVPSRFSGSGSGTDFSLTISNLEQEDIATYFCQQGYTLPPWTFGGGTKLEIKR |  |  |  |  |  |  |  |  |  |  |  |  |  |  |  | 429 | 41900 | 1.44 | 6260
5 | S009-F1.57.1 (antibody, human IgG1, kappa, V domains shown, human-murine chimeric antibody, human IgG1/kappa constant regions) VH: EAQLQQSGAVFVKPGASVKLSCTASGFSSKDIFLHWVKQRPEQGLEWIGRIDPASDNTIYDPKFQDRATITSDRSSNTAYLQFSSLTSEDTAVYFCLYFDFWGQGTTLTVSS VL: DIVMTQATPSISVTPGESVSISCRSSESLLHSNGNTYLYWFLQRPGQSPQLLIYRMSNLASGVPDRFSVSGSGTAFTLRISRVEAEDVGVYYCMQHLEYPLTFGAGTKLELKR |  |  |  |  |  |  |  |  |  |  |  |  |  |  |  | 948 | 8750 | 3.9 | 6660
